Measured values reported in patent US20050244400A1.

Key:
[1] = target: GAAΔ791-952-GILTΔ1-7 (GAA truncated with the GILT tag fused at position 791) (human) (UniProt P10253); assay: cell-based or functional assay
[2] = target: GAA Δ 817-952 (human GAA lacking C-terminal residues 817-952) (human) (UniProt P10253); assay: cell-based or functional assay

GAA activity (nmol/hr-ml) in media of co-transfected HEK293 cells [1]	GAA activity (nmol/hr-ml) in media of co-transfected HEK293 cells [2]	Substance
2 nmol/h/mL	14 nmol/h/mL	SS-GAA-791-952 (human IGF-II signal sequence fused to human GAA residues 791-952, the C-terminal domain) (from UniProt P10253 791-952) (enzyme)
1 nmol/h/mL	–	SS-GAA-817-952 (from UniProt P10253 817-952) (enzyme)
